Data on three molecules can be found in patent US20230167182A1 (BIOSION, published 2023).

Assay [1] concerns the target T1, recombinant human IL6R-his (human, UniProt P08887 20-365).
T1 construct: In house made; the entry includes the C-terminal His tag; also called human IL6R-his protein
T1 sequence: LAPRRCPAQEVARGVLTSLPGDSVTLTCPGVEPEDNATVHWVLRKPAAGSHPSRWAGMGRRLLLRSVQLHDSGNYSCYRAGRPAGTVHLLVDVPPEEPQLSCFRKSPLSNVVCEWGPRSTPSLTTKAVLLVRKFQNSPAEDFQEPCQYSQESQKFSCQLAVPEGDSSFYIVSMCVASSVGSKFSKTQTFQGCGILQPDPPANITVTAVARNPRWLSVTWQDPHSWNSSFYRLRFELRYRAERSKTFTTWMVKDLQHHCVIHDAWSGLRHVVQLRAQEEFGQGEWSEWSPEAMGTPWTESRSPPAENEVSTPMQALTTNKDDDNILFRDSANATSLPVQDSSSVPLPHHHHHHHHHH
Kind of assay: SPR Biacore; antibody from diluted cell supernatant captured by anti-human IgG on CM5, human IL6R in flow. As to the method:
(§1) Un-reacted moieties on the biosensor surface were blocked with ethanolamine. […] Then, serially diluted recombinant human IL6R-his (in house made, amino acid sequence set forth in SEQ ID NO: 44) or macaca IL6R-his protein (in house made, amino acid sequence set forth in SEQ ID NO: 45), starting at 100 nM with a 2-fold serial dilution in HBS-EP⁺ buffer (provided by Biacore), was flowed onto the chip at a flow rate of 30 μL/min. The antigen-antibody association kinetics was followed for 2 minutes and the dissociation kinetics was followed for 10 minutes. The association and dissociation curves were fit to a 1:1 Langmuir binding model using BIAcore evaluation software.
Cell supernatants containing humanized antibodies were harvested after six days in shaking flasks and directly subjected to BIAcore test following the protocol described above with modifications.
(In general: SPR reads the build-up and loss of mass on a sensor chip optically.)

The next assay has as its target T2, human IL6R-Fc protein (human, biotin-labeled in the ELISAs (sites not given)).
T2 construct: In house made; also called biotin-labeled human IL6R-Fc protein
Put plainly: capture ELISA: antibody captured on anti-IgG F(ab')2 coated plate, then biotin-labeled human IL6R-Fc, streptavidin-HRP. As to the method: For the capture ELISA, 96-well micro plates were coated with 2 μg/ml AffiniPure Goat Anti-Mouse IgG, F(ab′)₂ fragment specific (Jackson ImmunoResearch Laboratories, Inc., Cat #115-005-072) in PBS, 100 μl/well, and incubated for 2 hours at 37° C. Plates were washed once with wash buffer (PBS+0.05% v/v Tween-20, PBST) and then blocked with 200 μl/well blocking buffer (5% w/v non-fatty milk in PBST) overnight at 4° C. […] Plates containing captured anti-IL6R antibodies were incubated with biotin-labeled human IL6R-Fc protein (prepared in house, SEQ ID NO: 43, 39.5 ng/ml in 2.5% w/v non-fatty milk in PBST, 100 μl/well) for 40 minutes at 37° C., washed 4 times, and incubated with streptavidin conjugated HRP (1:10000 dilution in PBST, Jackson ImmunoResearch Laboratories, Inc., Cat #016-030-084, 100 μl/well) for 40 minutes at 37° C. After a final wash, plates were incubated with 100 μl/well ELISA substrate TMB (InnoReagents, Cat #TMB-S-002). The reaction was stopped 3-10 minutes later at room temperature with 50 μl/well 1M H₂SO₄, and the absorbance of each well was read on a microplate reader using dual wavelength mode at 450 nm for TMB and 630 nm as the reference wavelength. Then the OD (450-630) values were plotted against antibody concentration. Data was analyzed using Graphpad Prism software and EC₅₀ values were reported.
For the capture ELISA, AffiniPure Goat Anti-Human IgG, F(ab′)₂ fragment specific (Jackson Immuno Research, Cat #109-005-097) was used instead of AffiniPure Goat Anti-Mouse IgG, F(ab′)₂ fragment specific, 100 μl/well.
(ELISA stands for enzyme-linked immunosorbent assay.)

Assay [2] concerns the target T1, recombinant human IL6R-his. Kind of assay: SPR Biacore T200; antibody captured on Protein G chip, antigen in flow, 1:1 fit. As to the method: as §1
The next assay deals with T3, macaca IL6R-his protein (macaca mulatta).
T3 chain: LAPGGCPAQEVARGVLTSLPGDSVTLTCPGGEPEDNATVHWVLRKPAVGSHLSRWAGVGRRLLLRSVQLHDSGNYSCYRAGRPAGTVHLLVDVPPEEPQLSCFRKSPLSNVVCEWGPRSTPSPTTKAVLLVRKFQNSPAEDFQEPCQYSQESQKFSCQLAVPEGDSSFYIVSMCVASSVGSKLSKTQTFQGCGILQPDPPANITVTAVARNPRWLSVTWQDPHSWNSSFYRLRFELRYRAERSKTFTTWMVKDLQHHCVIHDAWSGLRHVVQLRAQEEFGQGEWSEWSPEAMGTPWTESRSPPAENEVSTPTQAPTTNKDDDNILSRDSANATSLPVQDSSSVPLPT
The assay is described as above. As to the method: as §1

B1: humanized antibody hu1H7-V5 (antibody, human IgG1, kappa, V domains shown)
VH: QVQLVQSGAEVKKPGASVKVSCKASGYTFTNYWMHWVRQAPGQGLEWIGEINPTNGRTNYNENFKSRVTLTVDTSTSTVYMELSSLRSEDTAVYYCARLNTHYVFDSWGQGTLVTVSS
VL: EIVLTQSPGTLSLSPGERATLSCSVSSSISSNYLHWYQQKPGLSPRLLISRTSTLASGIPARFSGSGSGTEYTLTISRMQSEDFAVYYCQQGSGIPFTFGQGTKLEIKR
notes: Human IgG1 / kappa
On to B1, for which, in assay [1], the Kd stood at 0.526 nM, the off-rate constant (koff) is 0.000195 s⁻¹ and the kon worked out at 370000 M⁻¹ s⁻¹.

B2: Tocilizumab (antibody, human IgG1, kappa, V domains shown)
VH: QVQLQESGPGLVRPSQTLSLTCTVSGYSITSDHAWSWVRQPPGRGLEWIGYISYSGITTYNPSLKSRVTMLRDTSKNQFSLRLSSVTAADTAVYYCARSLARTTAMDYWGQGSLVTVSS
VL: DIQMTQSPSSLSASVGDRVTITCRASQDISSYLNWYQQKPGKAPKLLIYYTSRLHSGVPSRFSGSGSGTDFTFTISSLQPEDIATYYCQQGNTLPYTFGQGTKVEIKR
notes: In house made; also called benchmark; Actemra
Turning to B2, the EC50 with human IL6R-Fc protein was 0.18 nM. Also, the results for the dissociation constant Kd (in assay [2]; with macaca IL6R-his protein) were 3.26 nM and 3.8 nM, respectively.

B3: mouse anti-IL6R monoclonal antibody 1H9 (antibody, V domains shown)
VH: QVQLQQPGAELVKPGASVKLSCKASGYTFTSYWMHWVKLRPGQGLEWIGEINPTNGRTNYYEKFKNRATLTADKSSSTAYMQLSSLTFEDSAVYFCAKFHYSRWYFDVWGTGTTVTVSS
VL: DIVMTQSQKFMSTSVGDRVSITCKASQNVGTAVVWYQQKPGQSPKLLINPASNRYTGVPDRFTGSGSGTDFTLTISNMQSEDLADYFCQQYSSYPLTFGAGTKLELK
notes: Mouse hybridoma mAb
For the molecule B3, in the assay with human IL6R-Fc protein, the response was half-maximal at 0.0834 nM (EC50).

As usually defined, the Kd is the concentration at which binding is half-saturated. The term koff denotes the rate constant with which the complex falls apart. One may read the kon as a measure of how fast the partners come together. The term EC50 denotes the concentration at which the effect is half-maximal. A higher EC50 goes with lower potency in that assay.
